Reference: PMC6167383, “Regulatory control of DNA end resection by Sae2 phosphorylation” (Nature Communications, 2018)

What was measured:
[1] = target: the molecule itself; assay: SEC; Superose 6 10/300 GL, 50 mM Tris-HCl pH 7.5, 150 mM NaCl, 10% glycerol, 0.5 mM β-mercaptoethanol, 4 °C; ~75 μg of the Sae2 variant, mock-treated or treated with λ phosphatase for 90 min at 30 °C before loading; absorbance at 215 nm
[2] = target: T1, pSae2 λ (dephosphorylated) (Saccharomyces cerevisiae, UniProt P46946 1-345); assay: EMSA; lambda phosphatase-treated; 2 mM Mg2+; 25 mM Tris-acetate pH 7.5, 1 mM DTT, 2 mM Mg acetate, 0.1 mg/ml BSA, 1 nM DNA, 30 C; 1 mM ATP with MRX; 30 nM streptavidin where indicated; native PAGE in TBE; details: protein: recombinant; tags: C-terminal His; N-terminal MBP cleaved with PreScission; label: 3' 32P-cordycepin; blunt before 3' labeling
T1 sequence: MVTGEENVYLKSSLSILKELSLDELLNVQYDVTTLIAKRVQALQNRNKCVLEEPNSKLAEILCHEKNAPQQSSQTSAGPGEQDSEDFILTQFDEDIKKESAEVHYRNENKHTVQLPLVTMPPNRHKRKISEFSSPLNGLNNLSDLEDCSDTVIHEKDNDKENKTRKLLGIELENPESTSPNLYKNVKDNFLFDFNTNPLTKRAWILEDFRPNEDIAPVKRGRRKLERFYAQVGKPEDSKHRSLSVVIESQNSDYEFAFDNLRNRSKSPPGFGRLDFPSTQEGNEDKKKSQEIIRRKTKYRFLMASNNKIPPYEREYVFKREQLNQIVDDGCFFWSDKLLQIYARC

[3] = target: T2, S. cerevisiae Mre11-Rad50-Xrs2 complex (S. cerevisiae, UniProt P32829 1-692; P12753 1-1312; P33301 1-854); assay: pull-down; MBP-tagged Sae2 on amylose resin (mock-treated or λ phosphatase-treated on the resin), 5 μg recombinant MRX, 1 h at 4 °C; wash 50 mM Tris-HCl pH 7.5, 2 mM EDTA, 80 mM NaCl, 0.2% NP40; eluted with 20 mM maltose; silver staining; details: both partners purified
T2 construct: Mre11, S. cerevisiae; Rad50, S. cerevisiae; Xrs2, S. cerevisiae; also called MRX; MRX complex; copies: + +
T2 sequence (P32829 whole entry, chain 1 of 3): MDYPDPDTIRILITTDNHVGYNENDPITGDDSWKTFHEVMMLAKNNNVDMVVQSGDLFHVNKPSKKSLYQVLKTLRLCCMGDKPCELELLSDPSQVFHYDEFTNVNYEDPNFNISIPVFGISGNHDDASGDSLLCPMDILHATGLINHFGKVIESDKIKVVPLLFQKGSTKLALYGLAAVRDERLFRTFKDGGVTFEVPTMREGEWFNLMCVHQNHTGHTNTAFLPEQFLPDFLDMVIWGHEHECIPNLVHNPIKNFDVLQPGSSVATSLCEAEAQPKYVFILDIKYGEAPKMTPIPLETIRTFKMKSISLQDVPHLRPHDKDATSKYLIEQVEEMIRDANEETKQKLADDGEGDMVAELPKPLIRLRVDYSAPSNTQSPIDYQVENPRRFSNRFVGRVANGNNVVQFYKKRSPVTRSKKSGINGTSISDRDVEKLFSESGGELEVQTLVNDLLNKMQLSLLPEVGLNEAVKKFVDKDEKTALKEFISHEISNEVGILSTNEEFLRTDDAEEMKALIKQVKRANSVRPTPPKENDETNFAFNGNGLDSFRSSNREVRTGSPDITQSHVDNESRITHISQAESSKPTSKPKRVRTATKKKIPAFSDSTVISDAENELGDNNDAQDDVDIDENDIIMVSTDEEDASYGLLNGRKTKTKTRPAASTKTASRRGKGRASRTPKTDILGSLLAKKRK
T2 sequence (P12753 whole entry, chain 2 of 3): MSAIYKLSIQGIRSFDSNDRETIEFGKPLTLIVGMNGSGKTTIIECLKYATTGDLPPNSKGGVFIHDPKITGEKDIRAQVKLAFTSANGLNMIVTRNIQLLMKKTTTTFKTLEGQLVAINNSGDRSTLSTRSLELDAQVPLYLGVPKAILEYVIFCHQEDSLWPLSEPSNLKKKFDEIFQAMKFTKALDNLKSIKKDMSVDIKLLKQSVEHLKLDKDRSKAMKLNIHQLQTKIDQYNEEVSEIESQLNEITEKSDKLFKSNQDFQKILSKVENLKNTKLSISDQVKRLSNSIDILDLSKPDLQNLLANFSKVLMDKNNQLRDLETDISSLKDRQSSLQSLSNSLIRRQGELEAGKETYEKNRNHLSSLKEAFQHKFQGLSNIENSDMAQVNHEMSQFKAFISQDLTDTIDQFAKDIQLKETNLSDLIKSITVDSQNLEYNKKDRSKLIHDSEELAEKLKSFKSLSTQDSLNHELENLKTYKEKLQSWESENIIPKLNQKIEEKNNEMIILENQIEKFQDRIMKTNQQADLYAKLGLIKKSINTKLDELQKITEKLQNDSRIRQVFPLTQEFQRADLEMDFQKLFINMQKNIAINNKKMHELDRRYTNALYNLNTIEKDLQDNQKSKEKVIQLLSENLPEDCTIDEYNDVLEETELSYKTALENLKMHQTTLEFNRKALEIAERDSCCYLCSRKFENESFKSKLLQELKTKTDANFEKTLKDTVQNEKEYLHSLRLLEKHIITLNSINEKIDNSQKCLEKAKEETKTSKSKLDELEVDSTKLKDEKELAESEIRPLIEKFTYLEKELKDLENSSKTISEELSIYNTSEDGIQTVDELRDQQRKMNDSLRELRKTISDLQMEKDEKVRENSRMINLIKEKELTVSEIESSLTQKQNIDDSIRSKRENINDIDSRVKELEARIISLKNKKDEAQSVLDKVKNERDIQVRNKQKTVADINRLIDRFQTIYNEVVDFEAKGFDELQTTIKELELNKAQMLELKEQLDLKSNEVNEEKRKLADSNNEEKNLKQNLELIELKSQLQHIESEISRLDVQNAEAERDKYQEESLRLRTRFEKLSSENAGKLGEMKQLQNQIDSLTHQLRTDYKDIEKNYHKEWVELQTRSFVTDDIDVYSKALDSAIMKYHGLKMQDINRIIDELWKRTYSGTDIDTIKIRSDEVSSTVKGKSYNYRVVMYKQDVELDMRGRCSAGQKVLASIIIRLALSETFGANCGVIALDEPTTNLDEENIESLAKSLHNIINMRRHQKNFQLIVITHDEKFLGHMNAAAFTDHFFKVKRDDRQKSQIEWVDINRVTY
T2 sequence (P33301 whole entry, chain 3 of 3): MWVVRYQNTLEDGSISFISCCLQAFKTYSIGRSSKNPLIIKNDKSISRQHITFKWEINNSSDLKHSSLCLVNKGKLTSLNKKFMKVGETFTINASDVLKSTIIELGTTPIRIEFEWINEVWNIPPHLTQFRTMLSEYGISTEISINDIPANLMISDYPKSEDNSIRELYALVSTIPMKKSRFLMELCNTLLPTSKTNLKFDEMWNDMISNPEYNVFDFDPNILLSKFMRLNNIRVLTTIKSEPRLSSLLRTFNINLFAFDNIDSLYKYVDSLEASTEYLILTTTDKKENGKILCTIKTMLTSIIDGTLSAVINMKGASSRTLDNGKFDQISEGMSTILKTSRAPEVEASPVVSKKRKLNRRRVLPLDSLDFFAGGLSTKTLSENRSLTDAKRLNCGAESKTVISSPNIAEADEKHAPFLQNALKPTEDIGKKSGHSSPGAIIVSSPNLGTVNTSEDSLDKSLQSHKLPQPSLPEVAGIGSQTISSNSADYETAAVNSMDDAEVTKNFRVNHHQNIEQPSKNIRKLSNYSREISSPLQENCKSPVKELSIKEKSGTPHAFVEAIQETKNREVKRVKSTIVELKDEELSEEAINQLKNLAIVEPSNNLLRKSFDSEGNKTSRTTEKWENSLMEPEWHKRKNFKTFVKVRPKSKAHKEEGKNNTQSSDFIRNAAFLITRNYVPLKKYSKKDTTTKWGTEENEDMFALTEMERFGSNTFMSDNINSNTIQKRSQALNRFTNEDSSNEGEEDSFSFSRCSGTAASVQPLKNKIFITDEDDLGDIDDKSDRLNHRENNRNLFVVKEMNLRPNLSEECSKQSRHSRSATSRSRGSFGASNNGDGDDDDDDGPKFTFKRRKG

[4] = target: the molecule itself; assay: atomic force microscopy (particle volume analysis); 50 nM pSae2 in 40 mM Hepes pH 7, 5 mM MgCl2, 25 mM NaCl, 0.1 mM TCEP deposited on mica, imaged in air, without DNA; molecular weight from a published standard curve

B1: pSae2 ΔC95, lacking 95 C-terminal residues (domain or fragment, S. cerevisiae, UniProt P46946 1-250, looked up)
chain: MVTGEENVYLKSSLSILKELSLDELLNVQYDVTTLIAKRVQALQNRNKCVLEEPNSKLAEILCHEKNAPQQSSQTSAGPGEQDSEDFILTQFDEDIKKESAEVHYRNENKHTVQLPLVTMPPNRHKRKISEFSSPLNGLNNLSDLEDCSDTVIHEKDNDKENKTRKLLGIELENPESTSPNLYKNVKDNFLFDFNTNPLTKRAWILEDFRPNEDIAPVKRGRRKLERFYAQVGKPEDSKHRSLSVVIESQ
modifications: phosphorylated (named pSae2; sites not listed)
notes: Sae2, S. cerevisiae, lacking the 95 C-terminal residues; source: Sf9, purified as pSae2; not shown: MBP, N-terminal, cleaved
[1]
  binding result: binds

B2: 100 bp dsDNA (Bio100/Bio100c) (dsDNA)
DNA 1: GTAAGTGCCGCGGTGCGGGTGCCAGGGCGTGCCCTTGGGCTCCCCGGGCGCGTACTCCACCTCATAATCTTCTGCCATGGTCGTAGCAGCCTCCTGCATC
DNA 2: GATGCAGGAGGCTGCTACGACCATGGCAGAAGATTATGAGGTGGAGTACGCGCCCGGGGAGCCCAAGGGCACGCCCTGGCACCCGCACCGCGGCACTTAC
modifications: internal biotin-T in Bio100 (bold T; exact position not visible in the text)
[2]
  binding result: binds

B3: pSae2 S267A, expressed in the presence of phosphatase inhibitors (natural protein, S. cerevisiae, UniProt P46946 1-345, looked up)
chain: MVTGEENVYLKSSLSILKELSLDELLNVQYDVTTLIAKRVQALQNRNKCVLEEPNSKLAEILCHEKNAPQQSSQTSAGPGEQDSEDFILTQFDEDIKKESAEVHYRNENKHTVQLPLVTMPPNRHKRKISEFSSPLNGLNNLSDLEDCSDTVIHEKDNDKENKTRKLLGIELENPESTSPNLYKNVKDNFLFDFNTNPLTKRAWILEDFRPNEDIAPVKRGRRKLERFYAQVGKPEDSKHRSLSVVIESQNSDYEFAFDNLRNRSKAPPGFGRLDFPSTQEGNEDKKKSQEIIRRKTKYRFLMASNNKIPPYEREYVFKREQLNQIVDDGCFFWSDKLLQIYARC
modifications: phosphorylated (prepared with phosphatase inhibitors; sites not listed)
notes: Sae2, S. cerevisiae, point mutant made in the pFB-MBP-Sae2-his plasmid; not shown: MBP, N-terminal, cleaved
[1]
  binding result: binds

B4: full-length phosphorylated recombinant MBP-tagged pSae2 (mock-treated), on amylose resin (natural protein, S. cerevisiae, UniProt P46946 1-345, looked up)
chain: MVTGEENVYLKSSLSILKELSLDELLNVQYDVTTLIAKRVQALQNRNKCVLEEPNSKLAEILCHEKNAPQQSSQTSAGPGEQDSEDFILTQFDEDIKKESAEVHYRNENKHTVQLPLVTMPPNRHKRKISEFSSPLNGLNNLSDLEDCSDTVIHEKDNDKENKTRKLLGIELENPESTSPNLYKNVKDNFLFDFNTNPLTKRAWILEDFRPNEDIAPVKRGRRKLERFYAQVGKPEDSKHRSLSVVIESQNSDYEFAFDNLRNRSKSPPGFGRLDFPSTQEGNEDKKKSQEIIRRKTKYRFLMASNNKIPPYEREYVFKREQLNQIVDDGCFFWSDKLLQIYARC
modifications: phosphorylated (phosphatase inhibitors; mock-treated); sites not listed
notes: Sae2, S. cerevisiae, full-length polypeptide; The MBP tag was cleaved off only after elution of the complexes; also called MBP-tagged Sae2; MBP-Sae2-His; not shown: MBP, N-terminal, kept
[3]
  binding result: binds

B5: pSae2 S267E dephosphorylated with λ phosphatase (natural protein, S. cerevisiae, UniProt P46946 1-345, looked up)
chain: MVTGEENVYLKSSLSILKELSLDELLNVQYDVTTLIAKRVQALQNRNKCVLEEPNSKLAEILCHEKNAPQQSSQTSAGPGEQDSEDFILTQFDEDIKKESAEVHYRNENKHTVQLPLVTMPPNRHKRKISEFSSPLNGLNNLSDLEDCSDTVIHEKDNDKENKTRKLLGIELENPESTSPNLYKNVKDNFLFDFNTNPLTKRAWILEDFRPNEDIAPVKRGRRKLERFYAQVGKPEDSKHRSLSVVIESQNSDYEFAFDNLRNRSKEPPGFGRLDFPSTQEGNEDKKKSQEIIRRKTKYRFLMASNNKIPPYEREYVFKREQLNQIVDDGCFFWSDKLLQIYARC
modifications: dephosphorylated with λ phosphatase
notes: Sae2, S. cerevisiae, full-length polypeptide with S267E; also called pSae2 S267E λ; not shown: MBP, N-terminal, cleaved
[1]
  binding result: binds

B6: full-length recombinant MBP-tagged Sae2 dephosphorylated with λ phosphatase on amylose resin (natural protein, S. cerevisiae, UniProt P46946 1-345, looked up)
chain: MVTGEENVYLKSSLSILKELSLDELLNVQYDVTTLIAKRVQALQNRNKCVLEEPNSKLAEILCHEKNAPQQSSQTSAGPGEQDSEDFILTQFDEDIKKESAEVHYRNENKHTVQLPLVTMPPNRHKRKISEFSSPLNGLNNLSDLEDCSDTVIHEKDNDKENKTRKLLGIELENPESTSPNLYKNVKDNFLFDFNTNPLTKRAWILEDFRPNEDIAPVKRGRRKLERFYAQVGKPEDSKHRSLSVVIESQNSDYEFAFDNLRNRSKSPPGFGRLDFPSTQEGNEDKKKSQEIIRRKTKYRFLMASNNKIPPYEREYVFKREQLNQIVDDGCFFWSDKLLQIYARC
modifications: dephosphorylated with λ phosphatase on the resin
notes: Sae2, S. cerevisiae, full-length polypeptide; also called non-phosphorylated MBP-tagged Sae2; not shown: MBP, N-terminal, kept
[3]
  binding result: binds

B7: hyperphosphorylated recombinant Sae2 (pSae2), expressed and purified with phosphatase inhibitors (natural protein, S. cerevisiae, UniProt P46946 1-345, looked up)
chain: MVTGEENVYLKSSLSILKELSLDELLNVQYDVTTLIAKRVQALQNRNKCVLEEPNSKLAEILCHEKNAPQQSSQTSAGPGEQDSEDFILTQFDEDIKKESAEVHYRNENKHTVQLPLVTMPPNRHKRKISEFSSPLNGLNNLSDLEDCSDTVIHEKDNDKENKTRKLLGIELENPESTSPNLYKNVKDNFLFDFNTNPLTKRAWILEDFRPNEDIAPVKRGRRKLERFYAQVGKPEDSKHRSLSVVIESQNSDYEFAFDNLRNRSKSPPGFGRLDFPSTQEGNEDKKKSQEIIRRKTKYRFLMASNNKIPPYEREYVFKREQLNQIVDDGCFFWSDKLLQIYARC
modifications: hyperphosphorylated (phosphatase inhibitors in culture and lysis buffer); estimate of 17 phosphorylation sites; sites not listed in the text
notes: Sae2, S. cerevisiae, full-length polypeptide (ends at residue 345 by the legend's 170-345); Tetramer by AFM volume analysis; also called phosphorylated Sae2; wt pSae2; not shown: MBP, N-terminal, cleaved
[4]
  stoichiometry N: 4

B8: pSae2 S267E phosphomimicking variant, expressed in the presence of phosphatase inhibitors (natural protein, S. cerevisiae, UniProt P46946 1-345, looked up)
chain: MVTGEENVYLKSSLSILKELSLDELLNVQYDVTTLIAKRVQALQNRNKCVLEEPNSKLAEILCHEKNAPQQSSQTSAGPGEQDSEDFILTQFDEDIKKESAEVHYRNENKHTVQLPLVTMPPNRHKRKISEFSSPLNGLNNLSDLEDCSDTVIHEKDNDKENKTRKLLGIELENPESTSPNLYKNVKDNFLFDFNTNPLTKRAWILEDFRPNEDIAPVKRGRRKLERFYAQVGKPEDSKHRSLSVVIESQNSDYEFAFDNLRNRSKEPPGFGRLDFPSTQEGNEDKKKSQEIIRRKTKYRFLMASNNKIPPYEREYVFKREQLNQIVDDGCFFWSDKLLQIYARC
modifications: phosphorylated (prepared with phosphatase inhibitors; sites not listed)
notes: Sae2, S. cerevisiae, full-length polypeptide with S267E; not shown: MBP, N-terminal, cleaved
[1]
  binding result: binds
